Data published in the supplement of paper PMC12764529.
± gives the half width of the 95% confidence interval.

Legend:
[1] = folding stability dG unfold (combined trypsin and chymotrypsin); higher = more stable
Method in brief: (§1)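 Digests were run with trypsin and chymotrypsin at 11 concentrations in threefold dilutions, plus a no-protease condition, on designed mini-proteins in a PA-tagged cDNA display construct. The mini-proteins were under 80 residues, had no cysteine, and were kept only when AlphaFold2 dimer inter-PAE was above 15. After sequencing, Bayesian fitting of the counts gave K50, from which unfolding free energy was derived against a sequence-predicted unfolded-state K50 and a shared folded-state K50, per protease or combined.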

[2] = folding stability dG unfold from chymotrypsin proteolysis; higher = more stable
Method in brief: as §1

Row | Sequence | folding stability dG unfold [1] [kcal/mol] | folding stability dG unfold [2] [kcal/mol]
1 | SMNVTEEVTVEELPSGEVLTETVVTEPSGVTTVTTTLASPPDRPVVETRTTTYPPDGSSTETSTVAPLPGSA [r9_1179_JUSTAS] | 0.00729 ± 0.23 | 0.507 ± 0.054
2 | SAGGSAGGSAGMLKTIVIKELTPEAKKALLENPDLPEDAEVPTLVEELTVPVKRTPKGLVSAGGSAGGSAGG [r17_194_JUSTAS] | -0.398 ± 0.13 | -0.0656 ± 0.077
3 | SAGGSAGGSGPALANIPPDAKVTVTPLPDDSYLVDIYYPNGPVEYLDVPVGDKWVKFEVEPEKSAGGSAGGS [r20_50_TrMRF] | < -1 | -0.749 ± 0.24
4 | SAGGSAGGSAGGSMLTVRSSSTTPLPDGSTVTTYEVNDKPYLVRVDPNGPVVTVKPLSLLSAGGSAGGSAGG [r7_772_JUSTAS] | -0.473 ± 0.29 | -0.367 ± 0.4
5 | SAGGSAGGTREIELPGMKISVQKDPNQGKKKIEVEFPNGEEFTMDPGKPPDDLPPPFRRALKEISAGGSAGG [r6_749_TrROS] | < -1 | -0.176 ± 0.31
6 | SAGGSSVKVVKTEVTEDPATGLTTVTETFENGAKATFTIDPATGTVPGETEYPDKKVKYTGYDPLPPSAGGS [r8_363_JUSTAS] | -0.111 ± 0.31 | 0.588 ± 0.15
7 | SAGGSAGGSAGGSSARVPFPATGAVLEVRVTPDGRPRVRVFNPATGEVVEFPPGAEVGVSAGGSAGGSAGGS [r4_158_TrMRF] | 0.0259 ± 0.13 | 0.762 ± 0.036
8 | SAGGSAGGSAGGTIKKVSDGTIVIPVPNPHQAEKFADTLMEKNNGRDVKIKVFPPEDFGPSAGGSAGGSAGG [r7_645_TrROS] | < -1 | -0.264 ± 0.1
9 | SAGGSAGGSAGGEVPADAVIEERLEVTDVSTGEKRRFRRTVTVEVDPDGSLRVRTEVEEESAGGSAGGSAGG [r7_19_JUSTAS] | -0.215 ± 0.3 | -0.184 ± 0.63
10 | SAGMTFEEEFVEEVDGGEMVKTKTLYEYDPSTNSITVLEEEVEKIPLPEVAPAPAPPEAMEERGAPGALSAG [r5_393_JUSTAS] | -0.115 ± 0.09 | 0.254 ± 0.093
11 | SAGGSMTVSTAPDGTLKVYDPATGKLNPLPVPPVPLVVSRSVQPDKGVVITTTTTPSGEVTVSTTALSAGGS [r16_453_JUSTAS] | -0.159 ± 0.075 | 0.394 ± 0.06
12 | SAGGSAGMVVEPREVVIKLKPPNGPETTLEVELVEVEPDSLVLRNGDTPIVLPPDAEDVEILEVTGSAGGSA [r15_510_JUSTAS] | 0.0501 ± 0.22 | 0.401 ± 0.088
13 | SAGAAAIAEKLGFSPELVEILSVEDVEYTIVVRRTGEPVKMKRPTVKVLVTDPSVPKETTAEVPVAELASAG [r5_517_JUSTAS] | -0.714 ± 0.35 | -0.807 ± 0.57
14 | SAGGSAGGSAMTVYVPIEEVGPDENGEYDDELIRERVREEYPDEPVEEVLVEGPEEAERVARSAGGSAGGSA [r18_72_JUSTAS] | -0.384 ± 0.23 | -0.134 ± 0.061
15 | SPPVLYEITITFTYSDGTTVTKTINATVPRSQIDALIQKIIEEPGNKPYTKVTFNIYDKSTGTWTTITIDSA [r9_97_JUSTAS] | 5.66 ± 0.23 | 5.76 ± 0.18
16 | SMVIPSSLGFEPALERVRALLPPERRYVVTELDPATGETTTATYDPATGTVTTTATPSAAGPPYVVVEVVSA [r9_1059_JUSTAS] | -0.251 ± 0.086 | 0.345 ± 0.064
17 | SAGGSAGGSAGMPLEELAQEALNQFQENGEPVEIDIEVETPNGEYFPFEVEINGDGLKIRSAGGSAGGSAGG [r11_954_TrROS] | -0.0909 ± 0.32 | 0.455 ± 0.068
18 | SAGGSAGGSAGGEVITVKRPDGTPFDVTAVLSEDPVVPLLTVEATDDGPVVTLDVPASLLSAGGSAGGSAGG [r7_236_JUSTAS] | -0.172 ± 0.26 | 0.207 ± 0.16
19 | SAGGSAGGSAGKALVFDSPEDLVEKLKENGVELTDIAEVDAPGGPVVLAPIEGIPKPGFGSAGGSAGGSAGG [r11_141_TrMRF] | 0.28 ± 0.16 | 0.633 ± 0.065
20 | SAGGSGMWTPKQVKLLAEPGKSKTITIPGPVSEEEINALLNAGEPVIITLPDGTVLKAEKNTITLESAGGSA [r2_33_JUSTAS] | -0.371 ± 0.15 | 0.138 ± 0.084
21 | SMEPPVPKIKARLVEVREEGERPRALFEIEEIEDAPPEIEELFKRGAKIEVEIPPDYPLKEDEEIEVDPLSA [r9_557_TrMRF] | 0.0252 ± 0.28 | 0.622 ± 0.15
22 | SAGGSAGGSMTVDTTYDPSTDRVTLTVTIPAPDGSELVRTVQSTGDPEAAAAAAAAAVAAAAASAGGSAGGS [r20_33_JUSTAS] | < -1 | -0.252 ± 0.14
23 | SAGGSAGGMTARKTYEVEVPADDPDALADLAFDLPAGDTVYFRTPGPDLRAVVTDDVPVVEPAGSAGGSAGG [r6_550_TrMRF] | < -1 | 0.0243 ± 0.18
24 | SAGGSGDSMLVPVSESTSSYPPSGIVRSTKTILDPKKGGIITETTTTTLTPDGNPLSTTPSTTVKESAGGSA [r2_253_JUSTAS] | -0.244 ± 0.23 | 0.344 ± 0.032
25 | SAGGKPGEPVKIKMRGPDGQPMTFPFYAPEPVKIKMNNPGEEHEHTIPPGEPLTFPLPPGDIEVEPVSAGGS [r16_456_TrROS] | -0.171 ± 0.2 | 0.315 ± 0.2

Row | Sequence | folding stability dG unfold [1] [kcal/mol] | folding stability dG unfold [2] [kcal/mol]
26 | SAGGPEKKILVARDSSDPNLPLEKIKEELEKKGFPPAEVTSAATEPLEKAREKAEKEGNPLIVLPVESAGGS [r16_94_JUSTAS] | < -1 | -0.927 ± 0.32
27 | SSMVVINFPDTKKATPETLRKEIEPVAAPGKPVLVTVYPPTGVVLKTATVEPDKVEEVDPSHPYIVEIVASA [r9_264_JUSTAS] | -0.558 ± 0.16 | -0.377 ± 0.24
28 | SAGGSAGGGSMDPKVETEEFEEPGREVKREKLPDGLVVTEYTEPDGPKSTVVTDPETGKVTVIGSAGGSAGG [r6_159_JUSTAS] | 0.082 ± 0.15 | 0.653 ± 0.079
29 | SAGGSAGMRMQIQIPNDEIPPEKIEDALQEYGWNPTDVYPPDNGVSVTFEMDPGDMNKLMEAIKKLSAGGSA [r15_161_TrROS] | 0.107 ± 0.35 | 0.843 ± 0.29
30 | SAGGSAGGSGMERVEAVREALVPGDPDAVPAPITYDPQTGKLTYSVSDPRVAAALAADPLVSLSAGGSAGGS [r12_623_JUSTAS] | -0.309 ± 0.19 | 0.333 ± 0.11
31 | SAGGSPAPVRRTVTQLLKVGDKLETRVVEEVVWVPEPPPPPVIPIPEDRGLNEEPVPGTRELTFDAGSAGGS [r8_28_JUSTAS] | -0.195 ± 0.37 | 0.268 ± 0.19
32 | SAMLTLPVESTDPARVEAAIAEARALAAQGARVEVPVRTPEGPLRFLVDPATGRVVRTDPATGATEVLPSAG [r14_423_JUSTAS] | -0.244 ± 0.13 | 0.161 ± 0.17
33 | SAGGSAGGSAGGMKPQPIKVTVERHFPDGTVELEELVFPSPEEVEKFLKENPDWTVVEVESAGGSAGGSAGG [r11_802_JUSTAS] | 3.4 ± 0.22 | 2.6 ± 0.081
34 | SAGGSAGGSAGGGSMDELPEIEEIAYVTDPATGAVTTVPASQVPEVLASTNNTVTIRPVSAGGSAGGSAGGS [r10_1121_JUSTAS] | < -1 | 0.363 ± 0.073
35 | SAGGSAGGLKPGDTVTLPIEIWIMHMETKKDPNGDPEPRMEPYPYRIPITIPADDLNDGKITLTSAGGSAGG [r6_138_TrROS] | < -1 | 0.0398 ± 0.46
36 | SAGGSAGMPRLVEIEVPLPPDAKDPEIKEKIIKTPEGYEYKTIKETSDPSPSSLRKIIMEKKPLKKSAGGSA [r15_852_JUSTAS] | < -1 | -0.197 ± 0.99
37 | SGMEEIKIEVLSTETDESGTTYTETKIVLPDGKVIEATMTTTTVPDAAGNPVAVETLTLKDKTYTRTIPLSA [r9_271_JUSTAS] | 0.101 ± 0.17 | 0.448 ± 0.12
38 | SAGGSAGGSGEYVVVLLREELPDEERYLRRPVPLDAALEALKEGKLVRSSEGREWRFAEYRPESAGGSAGGS [r12_432_TrMRF] | -0.218 ± 0.28 | -0.0188 ± 0.33
39 | SAGGSAGGSPGVRVKPVGDHYVVEIPLPPSVPLGRAVFEVEGGYAETVAVDPERGIATVRVPLSAGGSAGGS [r12_675_TrMRF] | -0.352 ± 0.15 | 0.091 ± 0.11
40 | SAGGSAGGSAGGGMPVPPVEVVEVSEEVRPLPPSSDKTVRRVTRTLPDGSTLTFEEPPESAGGSAGGSAGGS [r10_945_JUSTAS] | 0.064 ± 0.062 | 0.459 ± 0.04
41 | KKRTIEIPFPANGYKVKIEVPEDQGKPIDEEEIQKLLREWHPDMPADDMPAKEIAKYLADEPGIKEVEIERS [r1_463_TrROS] | 0.132 ± 0.28 | 0.479 ± 0.25
42 | SAGGSAGGSAGGSWRVRIDLPNGKSRTIPIKPGEEVDLNEIADELSDKYNIKSISIEEPSAGGSAGGSAGGS [r4_116_TrROS] | -0.158 ± 0.29 | 0.42 ± 0.14
43 | SAMTISVSETPDTGSLTVPMTLEPDTVEEVVEEVAKEIAPEEAEVSIEVTEVVPHPDSVTVTAKITVRPSAG [r14_345_JUSTAS] | -0.0666 ± 0.085 | 0.361 ± 0.041
44 | SAGGSSNVGEVTIEIREPVNPERFVDPEYREKAIEEMKEKAEAKAEEIKKENPNVKVTVNISLLEPGSAGGS [r8_183_JUSTAS] | -0.00749 ± 0.36 | 0.659 ± 0.07
45 | PEISELTSEESEDGTTFTETKVTLKDPNSNKKINATRKVETEVVGDSTTVTSTLTLPKDKKTINESYTISPS [r1_374_JUSTAS] | < -1 | -0.591 ± 0.61
46 | SAGDLGEEALKDITENSTPVSPNETRTTTAVIKYKDKLVKITTTVKVPPESGTTVLSTPIEIFSPEELKSAG [r5_96_JUSTAS] | < -1 | -0.118 ± 0.33
47 | SAGGSAGGSAGMLTTKTITLPHAPDDPAAFRAAVLKGLPPELPVLSVDYDPATGTGTVVASAGGSAGGSAGG [r11_698_JUSTAS] | < -1 | 0.0666 ± 0.31
48 | SATKTINFDEFNDMMNQGDPPMLRHIIKEAREKDPDKEITIRMPKNPMFRDYIKEAFKEEGYPVKITPHSAG [r14_236_TrROS] | < -1 | -0.494 ± 0.36
49 | SSTTTTTTDPSGYTYSTTVTTHPDSTTTTTGRVTVEKVGDRPVARTTTTTTTVSPGGATTTTTSTTTTLPSA [r9_69_JUSTAS] | 0.0549 ± 0.082 | 0.589 ± 0.1
